Experiments:
[1] = biological target: HLA-A*01:01 peptide-MHC class I (biotinylated pMHCI) (human | , biotin on the Avi-tag (BirA ligase)); assay: SPR; average over HLA-A1 peptides, 25°C
[2] = biological target: HLA-A*03:01 peptide-MHC class I (biotinylated pMHCI) (human | , biotin on the Avi-tag (BirA ligase)); assay: SPR; average over HLA-A3 peptides, 25°C
[3] = biological target: HLA-A*24:02 peptide-MHC class I (biotinylated pMHCI) (human | , biotin on the Avi-tag (BirA ligase)); assay: SPR; average over HLA-A24 peptides, 25°C

Kd [1]: 120 µM
Kd [2]: 133 µM
Kd [3]: 214 µM
B1: soluble human CD8αβ-Fc heterodimer (Fc fusion)
chain 1: not shown
chain 2: LQQTPAYIKVQTNKMVMLSCEAKISLSNMRIYWLRQRQAPSSDSHHEFLALWDSAKGTIHGEEVEQEKIAVFRDASRFILNLTSVKPEDSGIYFCMIVGSPELTFGKGTQLSVVDFLPTTAQPTKKSTLKKRVCRLPRPETQKGPLCSP
